From the supplement of paper PMC12764529
± gives the half width of the 95% confidence interval.

Assay: folding stability dG unfold from trypsin proteolysis; higher = more stable
Procedure, shortened: (§1)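 Designed mini-proteins with no cysteine and under 80 residues were kept only if AlphaFold2 dimer inter-PAE was above 15. In a PA-tagged cDNA display construct, they were digested with trypsin and chymotrypsin and then sequenced. K50 was inferred by Bayesian fitting of counts, and unfolding free energy was derived per protease or combined against a sequence-predicted unfolded-state K50 and a shared folded-state K50.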

Sequence	folding stability dG unfold [kcal/mol]
SSPKILTESELKITIPMTDPETGKPINLEVTIPLLVDPATGTVEVLEIKITGPEEVQEILKKLIEKLIKESA [r9_619_JUSTAS]	2.14 ± 0.23
SAGGSAGGSALDSLVPDIDLRVRVEPVPDDPSILRADVELSDGLVLEVEFLPSGVARVSLSGKGSAGGSAGG [r6_122_TrMRF]	-0.0307 ± 0.084
SAMSEKDMEPIETFELPETNVKIELYYNKKTKKYVIKIKNKKTKKTKTIVIKSKDGKITLEELKKLIKKSAG [r14_948_TrROS_Hall]	2.93 ± 0.24
MYTIEVEVSTEPNPNTTTVTVRITSDDGTPVPEEVVKEAAEKIKKSGYPIDELEVKPLPDGSVEVTLKYSSS [r1_408_JUSTAS]	3.31 ± 0.17
SAGGSSSTPVSSSTFTTPDGVTVSVTTTLEPDASGNPYTVTTETFPDGTVTTTTYRNGETQTTTVASAGGSA [r2_182_JUSTAS]	1.28 ± 0.041
SAGGSAMKVIRIRPDDPRVKELLKKLEDAGYEVRYDEETGELYVTLPDGKVLKFKSLEELKKAGFESAGGSA [r15_94_TrROS_Hall]	1.63 ± 0.029
SMILDVPGEQLDEALAEIRAAVAAGAPPVTIRMKLSPEDLKKAKAAFEALGMTVTPLPEPGVWEFTVELRSA [r9_600_JUSTAS]	3.08 ± 0.043
SAGGKEYYLVKIEIEVTPENGKKETIEIELIVDGNPEEALKKAKEIAEYLEKKGFKVEIKKIEVYPASAGGS [r16_525_TrMRF]	3.9 ± 0.15
SAMVYEFPFETEEEAREKAREVLLEKLGASPEEEKVELDIEIEIREDPETGKKLATVTVPKVTVSPKKSSAG [r14_467_JUSTAS]	0.0292 ± 0.11
SAGGSAGGSPKWKTIEITVLVPGMPAEEIAKNIANNFGIEITDIDVQLFPNGWVVVSATIRVKSAGGSAGGS [r12_359_TrROS]	2.59 ± 0.087
AAPEGAVVTFDDKEITVAPDETLYLVNGKLYTKSEIPAVLKQLSPETEYTELTVAGDTGEVETETKHIYRPS [r1_304_JUSTAS]	0.867 ± 0.097
SAGGSAMYEVTEEKDPNSDYTTVTITFPNGATVTITYNPKTNTITADVDPAVDPEVAAAAAKAVLSSAGGSA [r15_511_JUSTAS]	1.92 ± 0.067
SAGGSAKPKRFVALIKLKGPEGKEIAEIPIVISPDKPEVDIDEIAREIAEKLGVEEIEAEIKEIEESAGGSA [r15_333_TrMRF]	0.48 ± 0.13
SAGGEKEYVEVTLEIEIEIELEPGESAEEIARKLAEELGAEITEVRVERLPDGTVKITVTVRVKLPPSAGGS [r8_292_TrROS_Hall]	3.3 ± 0.29
SAGGRIVEAAKEAGLDGVDLKEIRPLPDGGVEIRILPPPGMPEEAAAEAAERIERALREEFPDTRIDTESAG [r5_101_TrMRF]	-0.835 ± 0.33
SAGGSAGGMIPVKTTETTTLPDGSTVVTESLTIIDPTSNTSTTTTLKTTIINTSTGTTIPPSSLSAGGSAGG [r6_866_JUSTAS]	1.38 ± 0.032

Sequence	folding stability dG unfold [kcal/mol]
SAGKKKKIKKIEIEIEKNKDGKEIKVKVKVDGKEYEFTFPKNMSLEELLKKLKEELEKEGLKIEEVEIKSAG [r5_305_TrROS_Hall]	2.5 ± 0.13
SAGGSAGGKIKPGEKVKVKVKIKNKNGEVFEATATVVDGKIFIEVDGKIYEISADDIEEIEVEPSAGGSAGG [r6_132_TrROS_Hall]	1.47 ± 0.042
SAGGSAGGSAGGKVEEVEKLAEELEKELGVDIGEVEVLDHPDKFRYRIRIPDLDLDLEFSAGGSAGGSAGGS [r10_161_TrMRF]	-0.529 ± 0.18
SANKNFYIIQIKWEIDGPDGRTLSFMIIVPRDDPDEFLKEAKDFIAEEFGYPIKKIEVDIHRIPPEDFPSAG [r14_104_TrROS]	2.76 ± 0.14
SAGGSAGGSMRFPPGQKIEIEEWKHNPNGGNYQVSIRFKDGKKKTFTSPEDIDRLIKAGHVKISAGGSAGGS [r12_455_TrROS]	-0.0362 ± 0.26
SAVPLELPLSDEELRELLEKHSVDSTITLTLKVGDRWVRVTVTLKEVKREPNRLSVSVELTVTPLPPEESAG [r14_335_JUSTAS]	2.86 ± 0.07
SDALKNIPFEIVEIDPPPPDRPIPAGGTVRITVYNPLTPGQPFTFDVRFIPGEGTLIAEIGGLPVEIPIGSA [r9_243_TrMRF]	2.53 ± 0.079
SAGGSAGGSAGSVTLPKNQVGVSVESYEVTLPDETGESVTRYKITLRFAETGLSAEFYAGSAGGSAGGSAGG [r17_266_TrMRF]	1.2 ± 0.047
SAGGSAGGSAGPKVVLVPVKVVQKLLGVKIPENSRVLVLLEKDKVKAVLVFPVLPSPENPSAGGSAGGSAGG [r11_616_TrMRF]	1.26 ± 0.12
SAGGSAKKTIKITIEVDGKTIEITKITVNENGEVTIEVKITNKNGKETKTIKITMTVEELKALLKSSAGGSA [r15_56_TrROS_Hall]	1.63 ± 0.042
SAGEVKIEVEGLPDKTVIRITIPYTAPGVGPSALLAVLKELGLPPETKLLKVEFYEEPKTVEALVVQGSAGG [r19_186_TrMRF]	1.13 ± 0.088
SAGGSAGGSAMVVEIKPEKLPNGKYKVTVTITDPSTGKTTTTPYIVDPNKFTEEDIKKKLSSAGGSAGGSAG [r3_127_JUSTAS]	1.37 ± 0.055
SAGGSMEIVKKETFTLEDGRKIEVVYDKETNKYVVKIYNKETGEEVEITVKSKEEAEEALKKLLEESAGGSA [r2_70_TrROS_Hall]	1.88 ± 0.13
SAGEVKIEISVEKVGGKYIVRIKVTVDGKEYEYEFPAGKSVEELAKELEKKLNLKVKKIEVEVRKLPPKSAG [r5_181_TrROS_Hall]	2.88 ± 0.11
SAGGSAGGSPGTLIEVRFPDRIVRIYQLPPGVYRVEVYEPPYLVATIELPNVTAEEAARLALGSAGGSAGGS [r20_8_TrMRF]	1.61 ± 0.034

Assay: folding stability dG unfold from chymotrypsin proteolysis; higher = more stable
Procedure, shortened: as §1

Sequence	folding stability dG unfold [kcal/mol]
SSPKILTESELKITIPMTDPETGKPINLEVTIPLLVDPATGTVEVLEIKITGPEEVQEILKKLIEKLIKESA [r9_619_JUSTAS]	2.15 ± 0.12
SAGGSAGGSALDSLVPDIDLRVRVEPVPDDPSILRADVELSDGLVLEVEFLPSGVARVSLSGKGSAGGSAGG [r6_122_TrMRF]	-0.246 ± 0.11
SAMSEKDMEPIETFELPETNVKIELYYNKKTKKYVIKIKNKKTKKTKTIVIKSKDGKITLEELKKLIKKSAG [r14_948_TrROS_Hall]	3.42 ± 0.077
MYTIEVEVSTEPNPNTTTVTVRITSDDGTPVPEEVVKEAAEKIKKSGYPIDELEVKPLPDGSVEVTLKYSSS [r1_408_JUSTAS]	4.05 ± 0.13
SAGGSSSTPVSSSTFTTPDGVTVSVTTTLEPDASGNPYTVTTETFPDGTVTTTTYRNGETQTTTVASAGGSA [r2_182_JUSTAS]	1.33 ± 0.11
SAGGSAMKVIRIRPDDPRVKELLKKLEDAGYEVRYDEETGELYVTLPDGKVLKFKSLEELKKAGFESAGGSA [r15_94_TrROS_Hall]	2.19 ± 0.1
SMILDVPGEQLDEALAEIRAAVAAGAPPVTIRMKLSPEDLKKAKAAFEALGMTVTPLPEPGVWEFTVELRSA [r9_600_JUSTAS]	3.366 ± 0.017
SAGGKEYYLVKIEIEVTPENGKKETIEIELIVDGNPEEALKKAKEIAEYLEKKGFKVEIKKIEVYPASAGGS [r16_525_TrMRF]	4.55 ± 0.073
SAMVYEFPFETEEEAREKAREVLLEKLGASPEEEKVELDIEIEIREDPETGKKLATVTVPKVTVSPKKSSAG [r14_467_JUSTAS]	0.411 ± 0.099
SAGGSAGGSPKWKTIEITVLVPGMPAEEIAKNIANNFGIEITDIDVQLFPNGWVVVSATIRVKSAGGSAGGS [r12_359_TrROS]	3.16 ± 0.051
AAPEGAVVTFDDKEITVAPDETLYLVNGKLYTKSEIPAVLKQLSPETEYTELTVAGDTGEVETETKHIYRPS [r1_304_JUSTAS]	1.51 ± 0.12
SAGGSAMYEVTEEKDPNSDYTTVTITFPNGATVTITYNPKTNTITADVDPAVDPEVAAAAAKAVLSSAGGSA [r15_511_JUSTAS]	2.39 ± 0.028
SAGGSAKPKRFVALIKLKGPEGKEIAEIPIVISPDKPEVDIDEIAREIAEKLGVEEIEAEIKEIEESAGGSA [r15_333_TrMRF]	0.633 ± 0.2
SAGGEKEYVEVTLEIEIEIELEPGESAEEIARKLAEELGAEITEVRVERLPDGTVKITVTVRVKLPPSAGGS [r8_292_TrROS_Hall]	2.58 ± 0.2
SAGGRIVEAAKEAGLDGVDLKEIRPLPDGGVEIRILPPPGMPEEAAAEAAERIERALREEFPDTRIDTESAG [r5_101_TrMRF]	0.207 ± 0.056
